The test system of the data set is Escherichia coli TOP10. Description: shrunken log2 fold change of peptide-encoding DNA abundance (4.5 h post-induction vs induction); higher = less antimicrobial activity (less host growth inhibition). Conditions: time post-induction: 4.5 h; library: site-saturation at positions 5, 18, 19, 20.

The values below come from the supplement of paper PMC9112550, “Optimization of the antimicrobial peptide Bac7 by deep mutational scanning” (BMC Biology, 2022).
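Further: peptides expressed intracellularly from a pBAD plasmid library in pooled LB shake-flask culture, induced with 0.3% L-arabinose, DNA abundance read by NGS, three biological replicates, DESeq2 with apeglm shrinkage.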

For the sequence RRIRNRPPRLPRPRPRPNEAPRP, the “shrunken log2 fold change” value is -0.00931. For RRIRVRPPRLPRPRPRPSTPPRP, the “shrunken log2 fold change” value was -0.0614. Regarding RRIRHRPPRLPRPRPRPSDSPRP, the “shrunken log2 fold change” value was -0.0454. Regarding RRIRCRPPRLPRPRPRPKAEPRP, the “shrunken log2 fold change” value was found to be 0.173. On to RRIRWRPPRLPRPRPRPGYSPRP, for which the “shrunken log2 fold change” value is -0.191. On to RRIRTRPPRLPRPRPRPHNGPRP, for which the “shrunken log2 fold change” value is -0.0789.

As to RRIRARPPRLPRPRPRPYAPPRP, the “shrunken log2 fold change” value was determined as 0.162. RRIRPRPPRLPRPRPRPPSDPRP: the “shrunken log2 fold change” value came out at 0.128.

On to RRIRLRPPRLPRPRPRPLAPPRP, for which the “shrunken log2 fold change” value was found to be 0.274. In the case of RRIRNRPPRLPRPRPRPSPQPRP, the “shrunken log2 fold change” value worked out at 0.162. As for RRIRCRPPRLPRPRPRPYMSPRP, the figure is -0.366. Consider RRIRKRPPRLPRPRPRPNFQPRP, for which the “shrunken log2 fold change” value is 0.287. With RRIRRRPPRLPRPRPRPAPAPRP, the “shrunken log2 fold change” value came out at 1.1. RRIRFRPPRLPRPRPRPFFVPRP: the “shrunken log2 fold change” value is -0.161. For the sequence RRIRLRPPRLPRPRPRPVQFPRP, the “shrunken log2 fold change” value was -0.38. Turning to RRIRRRPPRLPRPRPRPRKWPRP, the “shrunken log2 fold change” value turned out to be 0.319. With RRIRARPPRLPRPRPRPVFCPRP the figure was 0.487; with RRIRVRPPRLPRPRPRPDACPRP, -0.11. Take RRIRTRPPRLPRPRPRPHTRPRP: the “shrunken log2 fold change” value was 0.0252. Turning to RRIRKRPPRLPRPRPRPPNVPRP, the “shrunken log2 fold change” value turned out to be 0.197.

Take RRIRSRPPRLPRPRPRPRVIPRP: the “shrunken log2 fold change” value was found to be 0.017.

As for RRIRPRPPRLPRPRPRPDSPPRP, the “shrunken log2 fold change” value amounted to 0.0152. Take RRIRSRPPRLPRPRPRPGNDPRP: the “shrunken log2 fold change” value stood at 0.111. Take RRIRARPPRLPRPRPRPNYVPRP: the “shrunken log2 fold change” value is -0.35. Turning to RRIRIRPPRLPRPRPRPPHHPRP, the “shrunken log2 fold change” value is -0.242. With RRIRYRPPRLPRPRPRPGIHPRP the figure was -0.467; with RRIRNRPPRLPRPRPRPIIYPRP, -1.06; with RRIRNRPPRLPRPRPRPVHDPRP, 0.068. Consider RRIRTRPPRLPRPRPRPCSEPRP, for which the “shrunken log2 fold change” value was -0.0314.

For the sequence RRIRGRPPRLPRPRPRPVRSPRP, the “shrunken log2 fold change” value was determined as 0.902. In the case of RRIRVRPPRLPRPRPRPYANPRP, the “shrunken log2 fold change” value turned out to be 0.0231. For the sequence RRIRIRPPRLPRPRPRPKMKPRP, the “shrunken log2 fold change” value is -0.457. As to RRIRPRPPRLPRPRPRPAMMPRP, the “shrunken log2 fold change” value was -0.214. As for RRIRERPPRLPRPRPRPCFMPRP, the figure is -0.231; as for RRIRPRPPRLPRPRPRPLGDPRP, 0.279; as for RRIRPRPPRLPRPRPRPCYHPRP, -0.428. Turning to RRIRVRPPRLPRPRPRPPRLPRP, the “shrunken log2 fold change” value came to 0.294. Consider RRIRWRPPRLPRPRPRPNKHPRP, for which the “shrunken log2 fold change” value is -0.281. As to RRIRFRPPRLPRPRPRPGHNPRP, the “shrunken log2 fold change” value was -0.409. As for RRIRCRPPRLPRPRPRPYADPRP, the figure is -0.037; as for RRIRARPPRLPRPRPRPVKQPRP, -0.0614; as for RRIRARPPRLPRPRPRPGSPPRP, 0.394.

On to RRIRQRPPRLPRPRPRPSMSPRP, for which the “shrunken log2 fold change” value is -0.393. As to RRIRYRPPRLPRPRPRPKTWPRP, the “shrunken log2 fold change” value is -0.132. Consider RRIRMRPPRLPRPRPRPEISPRP, for which the “shrunken log2 fold change” value is 0.0502. For RRIRNRPPRLPRPRPRPYGDPRP, the “shrunken log2 fold change” value was -1.01. Regarding RRIRSRPPRLPRPRPRPFLTPRP, the “shrunken log2 fold change” value is -0.437. Consider RRIRLRPPRLPRPRPRPNQQPRP, for which the “shrunken log2 fold change” value is 0.0291.

For RRIRIRPPRLPRPRPRPKCAPRP, the “shrunken log2 fold change” value is 0.0106. On to RRIRSRPPRLPRPRPRPPWYPRP, for which the “shrunken log2 fold change” value is -0.321. As to RRIRVRPPRLPRPRPRPCWMPRP, the “shrunken log2 fold change” value was -0.46. Consider RRIRNRPPRLPRPRPRPKMQPRP, for which the “shrunken log2 fold change” value was -0.0708. With RRIRFRPPRLPRPRPRPKVMPRP the figure was -0.178. On to RRIRTRPPRLPRPRPRPVAAPRP, for which the “shrunken log2 fold change” value was 0.389. Take RRIRKRPPRLPRPRPRPKCEPRP: the “shrunken log2 fold change” value is 0.848. For RRIRRRPPRLPRPRPRPIMDPRP, the “shrunken log2 fold change” value was 0.01. As for RRIRPRPPRLPRPRPRPHLQPRP, the “shrunken log2 fold change” value was found to be 0.152. With RRIRTRPPRLPRPRPRPKKAPRP, the “shrunken log2 fold change” value is -0.0102. With RRIRSRPPRLPRPRPRPNNFPRP, the “shrunken log2 fold change” value was -0.667. Regarding RRIRYRPPRLPRPRPRPDFIPRP, the “shrunken log2 fold change” value was -0.348. In the case of RRIRCRPPRLPRPRPRPYPNPRP, the “shrunken log2 fold change” value is -0.459. On to RRIRSRPPRLPRPRPRPLQTPRP, for which the “shrunken log2 fold change” value was 0.436. Take RRIRERPPRLPRPRPRPRGCPRP: the “shrunken log2 fold change” value amounted to 0.286. For RRIRVRPPRLPRPRPRPNRPPRP, the “shrunken log2 fold change” value is -0.262.

Turning to RRIRNRPPRLPRPRPRPAGGPRP, the “shrunken log2 fold change” value amounted to 0.16. As for RRIRARPPRLPRPRPRPLTEPRP, the figure is 0.608. As for RRIRFRPPRLPRPRPRPLLWPRP, the figure is 0.305; as for RRIRVRPPRLPRPRPRPLYYPRP, -0.453. With RRIRHRPPRLPRPRPRPDSPPRP the figure was 0.0316; with RRIRGRPPRLPRPRPRPDGSPRP, 0.85.

As to RRIRGRPPRLPRPRPRPDQHPRP, the “shrunken log2 fold change” value amounted to 0.271. Consider RRIRPRPPRLPRPRPRPLTLPRP, for which the “shrunken log2 fold change” value came to 0.121. As for RRIRARPPRLPRPRPRPHYAPRP, the “shrunken log2 fold change” value was -0.0521. Take RRIRPRPPRLPRPRPRPTRVPRP: the “shrunken log2 fold change” value is 0.547. Regarding RRIRDRPPRLPRPRPRPKWQPRP, the “shrunken log2 fold change” value worked out at 0.276. With RRIRFRPPRLPRPRPRPAGHPRP, the “shrunken log2 fold change” value was 0.153. Take RRIRIRPPRLPRPRPRPKDYPRP: the “shrunken log2 fold change” value is -0.603. In the case of RRIRCRPPRLPRPRPRPRRRPRP, the “shrunken log2 fold change” value was determined as 0.496. Regarding RRIRYRPPRLPRPRPRPPPEPRP, the “shrunken log2 fold change” value turned out to be 0.456. For the sequence RRIRMRPPRLPRPRPRPDEKPRP, the “shrunken log2 fold change” value is -0.0255. On to RRIRRRPPRLPRPRPRPNGWPRP, for which the “shrunken log2 fold change” value amounted to 0.282. For RRIRMRPPRLPRPRPRPPFQPRP, the “shrunken log2 fold change” value is 0.202.

Consider RRIRKRPPRLPRPRPRPPQIPRP, for which the “shrunken log2 fold change” value was 0.661. RRIRERPPRLPRPRPRPFVFPRP: the “shrunken log2 fold change” value was -0.379. As for RRIRTRPPRLPRPRPRPVEHPRP, the “shrunken log2 fold change” value stood at 0.0387. With RRIRVRPPRLPRPRPRPVVTPRP the figure was 0.0368.

As to RRIRGRPPRLPRPRPRPLLCPRP, the “shrunken log2 fold change” value is 1.17.

For the sequence RRIRWRPPRLPRPRPRPCKFPRP, the “shrunken log2 fold change” value was -0.24. As to RRIRTRPPRLPRPRPRPYPWPRP, the “shrunken log2 fold change” value was -0.178. As for RRIRCRPPRLPRPRPRPAINPRP, the “shrunken log2 fold change” value was -0.606. Regarding RRIRNRPPRLPRPRPRPYVHPRP, the “shrunken log2 fold change” value was -0.253. Turning to RRIRQRPPRLPRPRPRPFMDPRP, the “shrunken log2 fold change” value came to 0.0499. With RRIRKRPPRLPRPRPRPTPFPRP the figure was 0.113; with RRIRQRPPRLPRPRPRPFEQPRP, 0.106; with RRIRQRPPRLPRPRPRPYMTPRP, -0.122. For the sequence RRIRYRPPRLPRPRPRPGWVPRP, the “shrunken log2 fold change” value is 0.0444.

Take RRIRYRPPRLPRPRPRPKRDPRP: the “shrunken log2 fold change” value was -0.0103.

Consider RRIRPRPPRLPRPRPRPDSFPRP, for which the “shrunken log2 fold change” value is -0.0889. With RRIRYRPPRLPRPRPRPFPKPRP, the “shrunken log2 fold change” value is -0.28. Regarding RRIRFRPPRLPRPRPRPYCLPRP, the “shrunken log2 fold change” value was -0.341.

Take RRIRARPPRLPRPRPRPENFPRP: the “shrunken log2 fold change” value came out at 0.0336. On to RRIRYRPPRLPRPRPRPGPNPRP, for which the “shrunken log2 fold change” value turned out to be 0.205. As for RRIRKRPPRLPRPRPRPKRDPRP, the “shrunken log2 fold change” value turned out to be 0.539. Turning to RRIRWRPPRLPRPRPRPEAMPRP, the “shrunken log2 fold change” value came to 0.142. For RRIRYRPPRLPRPRPRPIYQPRP, the “shrunken log2 fold change” value is -0.614. As to RRIRKRPPRLPRPRPRPQYFPRP, the “shrunken log2 fold change” value is -0.0337.

With RRIRLRPPRLPRPRPRPMIIPRP, the “shrunken log2 fold change” value is -0.407. Regarding RRIRARPPRLPRPRPRPNFLPRP, the “shrunken log2 fold change” value worked out at 0.0215. Take RRIRHRPPRLPRPRPRPRIVPRP: the “shrunken log2 fold change” value came to 0.00411. As for RRIRMRPPRLPRPRPRPKASPRP, the “shrunken log2 fold change” value worked out at 1.97. Take RRIRMRPPRLPRPRPRPCLLPRP: the “shrunken log2 fold change” value was -0.0289. Take RRIRGRPPRLPRPRPRPFDGPRP: the “shrunken log2 fold change” value was 0.366. On to RRIRVRPPRLPRPRPRPMALPRP, for which the “shrunken log2 fold change” value is -0.169. With RRIRIRPPRLPRPRPRPYIWPRP the figure was -0.0625; with RRIRSRPPRLPRPRPRPNEQPRP, 0.0903. For the sequence RRIRLRPPRLPRPRPRPEPCPRP, the “shrunken log2 fold change” value came out at 0.0808. Regarding RRIRVRPPRLPRPRPRPEESPRP, the “shrunken log2 fold change” value came out at 0.246. On to RRIRVRPPRLPRPRPRPKFFPRP, for which the “shrunken log2 fold change” value is -0.0182.

RRIRHRPPRLPRPRPRPFGTPRP: the “shrunken log2 fold change” value was -0.213. Take RRIRYRPPRLPRPRPRPAITPRP: the “shrunken log2 fold change” value is -0.933. Turning to RRIRSRPPRLPRPRPRPVQWPRP, the “shrunken log2 fold change” value was 0.175. As for RRIRVRPPRLPRPRPRPSMIPRP, the figure is -0.375; as for RRIRVRPPRLPRPRPRPRDIPRP, -0.0591; as for RRIRNRPPRLPRPRPRPDMMPRP, -0.233. Turning to RRIRDRPPRLPRPRPRPGWVPRP, the “shrunken log2 fold change” value is 0.223.
